The values that follow come from US12630850B2, “Enzymatic break down of chlorogenic acid in sunflower-containing products” (Chapman University, priority 2022, dated 2026).

Series [1] is described as follows: CGA and CA content of sunflower protein isolates (HPLC). Type of series: biochemical. To be noted: enzyme present. From the text:
Sunflower meal and sunflower protein treatment with chlorogenic acid esterase. Sunflower seeds were ground using a KitchenAid coffee grinder in two 30 s increments and sieved through a 500 μm filter to make SFM. Two defatting methods were used: cold press and hexane extraction. To make cold pressed SFM, ground seeds were pressed in a Carver Hydraulic Unit Model 3912 3852-0 five times to a pressure of 9,000-10,000 psi. For hexane extracted SFM, fat was removed from ground seeds using a Soxhlet apparatus in 250 mL hexane for 18 h and subsequently dried using a Fischer Scientific Isotemp Oven Model 516G at 45° C. for 3 h. Cold pressed, hexane extracted, and undefatted SFM were then sieved through a 500 μm filter.
To make SPI, 12.5 g of cold pressed, hexane extracted, and undefatted SFM were buffered in 50 mM HEPES at pH 8.0. Samples were continuously stirred for about 10 min until all SFM was completely suspended. Then, 0.2 mg of CGA esterase per g of SFM was added. The final volume for all reactions was 125 mL. In untreated samples, a buffered solution of 50 mM HEPES, pH 8.0 was added instead of the enzyme solution. After 10 min, 0.1 M NaOH was added to each solution until pH reached 9.00±0.03. Samples were left to sit for 30 min and then centrifuged at 5,000 rpm for 20 min at 4° C. The supernatant was placed back into a 250 mL beaker and pH was lowered using 0.1 M HCl to reach an isoelectric pH of 5.00±0.03. Samples were allowed to precipitate at 4° C. overnight (14-16 h). The supernatant was discarded, and the precipitate was lyophilized for 20 h. All experiments (controls and CGA esterase treated samples) were duplicated.
(§1) HPLC quantification of CGA and CA in sunflower meal and protein isolates. All solutions were diluted ten-fold in 0.1% formic acid in HPLC-grade water before analysis. Quantification of CGA and CA concentration was performed using an Agilent 1260 series HPLC instrument (Agilent Technologies) equipped with a quaternary pump, an automated sample injector, a diode array detector, and a 4.6 mm×150 mm Luna C18(2) column with a 5 μm particle size and 100 Å pore size (Phenomenex). The injection volume was 20 μL. To elute analytes, mobile phases composed of 0.1% formic acid in HPLC-grade water (A) and 0.1% formic acid in HPLC-grade acetonitrile (B) were used in a linear gradient. The gradient is as follows: 0 to 13% B in 1 min, up to 27% B at 8 min, up to 100% B at 8.5 min, isocratic at 100% B to 9.5 min, 100% B returned to 0% B at 9.6 min with 3 min post-time. The concentrations of CGA and CA were calculated from peak integration data based on 10-point standard curve that spanned a concentration range of 0 to 0.1 mg mL^−1.

The nature of series [2]: Michaelis-Menten assay of CGA hydrolysis in buffer (absorption spectroscopy). It is filed as biochemical. To be noted: for kcat: CGA in buffer, room temperature. The protocol: Enzymatic assays to determine Michaelis-Menten parameters. Michaelis-Menten assays were conducted at 21° C. using an Agilent Technologies Cary 60 UV-Vis spectrophotometer. A stock solution of CGA was prepared by dissolving CGA in 50 mM HEPES pH 8.0 followed by calculation of concentration using the Lambert-Beer law with an extinction coefficient of 17,194 M^−1 cm^−1 at 330 nm. Subsequent dilutions of stock CGA were prepared to achieve final CGA concentrations of 0.02 mM, 0.04 mM, 0.06 mM, 0.10 mM, 0.20 mM, and 0.40 mM CGA. The final CGA esterase concentration in all enzymatic assays was 10 nM unless noted otherwise. All samples used for enzymatic assays were buffered in 50 mM HEPES, pH 8.0. Absorption scans were taken at 0.05 or 0.1 min intervals for 2 min between wavelengths of 250 nm and 400 nm. For CGA concentrations below 0.1 mM, the pathlength was 1 cm. Above 0.1 mM CGA, the pathlength was 0.5 cm.
To measure CGA depletion (Δ[CGA]), Equation 1 was used: […]
A is the absorbance at any time point in the reaction, Ao is the initial absorbance, εCA and εCGA are the extinction coefficients at 340 nm of caffeic acid (CA) and CGA, which are 4.15 mM^−1 cm^−1 and 14.43 mM^−1 cm^−1, respectively. To generate initial rates, (Δ[CGA]| was plotted against time. The change in absorbance during the first minute of the reaction was fit to a linear curve, which is used to generate the reaction rate. We note that the rate of CGA depletion is equivalent to CA formation. To test the effect of salt on enzyme kinetics, the same procedure was used, except that the experiment was run with 0.04 mM CGA buffered in 50 mM HEPES pH 8.0 with 500 mM NaCl.
Temperature-dependence measurements. A circulating water bath was used to run enzymatic reactions at different temperatures to maintain the temperature in the spectrophotometer within 1° C. of the target temperature. Buffered solution, CGA, and CGA esterase samples were pre-incubated for 10 min at the desired temperature before starting a measurement. All other instrument parameters were the same as for room temperature measurements described above.

For series [3] the following is noted: Song & Baik, 2017; cited from earlier work.
Series [4] can be described thus: CGA esterase kinetics in sunflower meal. It is filed as biochemical. The procedure: Chlorogenic acid esterase kinetics in sunflower meal. To determine the Michaelis-Menten parameters of CGA esterase in undefatted SFM, SFM suspensions were made at following concentrations: 1.0 mg mL^−1, 2.5 mg mL^−1, 10.0 mg mL^−1, 30.0 mg mL^−1, and 100.0 mg mL^−1. All samples were made to a final volume of 10 mL in a solution containing 50 mM HEPES, pH 8.0. Treated samples contained a final enzyme concentration of 10 nM. Reactions were stopped by acidifying the solution by adding 120 μL of 37% HCl at regular intervals for 600 s. Samples were subsequently centrifuged at 10,000 rpm for 10 min. […] The supernatant was then filtered using a 0.2 μm filter and loaded onto an HPLC, as described above. The initial amount of CGA that was present prior to adding enzyme was measured using HPLC.
as §1

Setting [5] is: CGA in 50 mM HEPES pH 8.0, 20° C.
The mark [6] stands for this setting: SFM supernatant, pH 8.0, 20° C.

By Km is commonly meant the concentration of substrate that gives half-maximal velocity. For orientation: Vmax means the rate approached at saturating substrate. Usually kcat stands for the number of substrate molecules converted per active site and unit of time at saturation.

Where “and” joins values, the source holds several entries; their conditions need not be identical. Equal values may be shown once. Read-outs that look alike come from different tables or passages of the source.

B1: CGA esterase: CGA esterase from L. helveticus (Genbank ID: WP_025283955.1, Uniprot ID: U6F2K7), expressed in Escherichia coli; the dimer is the active form (protein, listed as Lactobacillus helveticus)
chain: MSRITIERDGLTLVGDREEPFGEIYDMAIIMHGFAANRNTDLLRQIADDLRDENVASVRFDFNGHGESDGKFEDMTVCNEIADGKAILDYVRTDPHVRDIFLVGHSQGGVVASMLAGLYPDVVKKVVLLAPAAQLKDDALRSNTQGATYDPNHIPDWPLVGNKLGMKLGGFYLRTAQVLPIYEVSQCFTRPVSVIAGTNDQWDPKYAKKYDEVYENSELHMIPNADHRFSGGYKDMAADLTAQFLKPAF
For B1, the “mg CA/g protein” value in series [1] (SPI from cold pressed SFM) came out at 3.62 ± 0.05 mg CA/g protein; in series [1] (SPI from hexane extracted SFM), 3.38 ± 0.25 mg CA/g protein; in series [1] (SPI from undefatted SFM), 1.11 ± 0.38 mg CA/g protein. The “mg CGA/g protein” value in series [1] (SPI from cold pressed SFM), in series [1] (SPI from hexane extracted SFM) and in series [1] (SPI from undefatted SFM) was 0.00 ± 0.00 mg CGA/g protein in each case. The “Temperature until which the enzyme is active” value in series [2] was “at least 50 °C”. For the same molecule, the “Change of CGA esterase activity with temperature” value in series [2] (20° C. to 50° C.) was “increases only weakly”. The Km in series [2] (40° C.) is 96 ± 6 µM; in series [2] (setting [5]), 90 ± 38 µM; in series [3] it was 153 µM; in series [4] (setting [6]), 20 µM. Also, the maximum rate (Vmax) in series [2] (40° C.) was 215.4 ± 31.7 mM/min/mg; in series [2] (setting [5]), 170.2 ± 32.3 mM/min/mg; in series [2] (CGA in 50 mM HEPES pH 8.0, 20° C., listed as L. helveticus), 170.2 mM/min/mg; in series [3], 0.5596 mM/min/mg; in series [4] (setting [6]), 2.716 mM/min/mg. Besides, the kcat in series [2] is 82 s⁻¹ and 82 ± 15.6 s⁻¹; in series [2] (listed as L. helveticus CGA esterase) it was 82 s⁻¹; in series [2] (listed as chlorogenic acid esterase from Lactobacillus helveticus) it was 82 s⁻¹. Moreover, the “Vmax higher than previously reported” value in series [2] (vs Song & Baik, 2017) is reported as 300 fold. In series [4], the “Km in SFM lower than in buffered solution” value is 4.5 fold. The “Meal concentration at which maximal CGA hydrolysis activity is achieved” value in series [4] is “approximately 100 mg mL^−1”. Besides, in series [4], the “Vmax in SFM lower than in buffered solution” value is given as 60 fold.
